Test results: IntAct's records for PubMed 17036044

B1: Serine/arginine-rich splicing factor 3 (Homo sapiens), P84103 (parent)
chain: MHRDSCPLDCKVYVGNLGNNGNKTELERAFGYYGPLRSVWVARNPPGFAFVEFEDPRDAADAVRELDGRTLCGCRVRVELSNGEKRSRNRGPPPSWGRRPRDDYRRRSPPPRRRSPRRRSFSRSRSRSLSRDRRRERSLSRERNHKPSRSFSRSRSRSRSNERK
partner: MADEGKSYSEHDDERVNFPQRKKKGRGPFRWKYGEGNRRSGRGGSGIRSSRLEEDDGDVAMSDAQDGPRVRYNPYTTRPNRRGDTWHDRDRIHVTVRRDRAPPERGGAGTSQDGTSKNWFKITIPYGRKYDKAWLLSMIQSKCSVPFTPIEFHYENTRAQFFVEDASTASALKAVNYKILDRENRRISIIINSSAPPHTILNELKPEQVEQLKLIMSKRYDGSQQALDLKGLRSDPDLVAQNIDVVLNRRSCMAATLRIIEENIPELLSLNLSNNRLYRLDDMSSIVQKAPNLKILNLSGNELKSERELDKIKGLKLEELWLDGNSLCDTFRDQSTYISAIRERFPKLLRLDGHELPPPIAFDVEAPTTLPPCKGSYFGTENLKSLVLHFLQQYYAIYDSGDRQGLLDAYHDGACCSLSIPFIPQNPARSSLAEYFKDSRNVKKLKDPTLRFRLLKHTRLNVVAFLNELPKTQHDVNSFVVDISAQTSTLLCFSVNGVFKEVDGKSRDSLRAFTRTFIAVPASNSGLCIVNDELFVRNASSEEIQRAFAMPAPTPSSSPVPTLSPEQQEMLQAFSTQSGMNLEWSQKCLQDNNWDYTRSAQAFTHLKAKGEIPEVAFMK
B2: Serine/arginine-rich splicing factor 7 (Homo sapiens), Q16629 (parent)
chain: MSRYGRYGGETKVYVGNLGTGAGKGELERAFSYYGPLRTVWIARNPPGFAFVEFEDPRDAEDAVRGLDGKVICGSRVRVELSTGMPRRSRFDRPPARRPFDPNDRCYECGEKGHYAYDCHRYSRRRRSRSRSRSHSRSRGRRYSRSRSRSRGRRSRSASPRRSRSISLRRSRSASLRRSRSGSIKGSRYFQSPSRSRSRSRSISRPRSSRSKSRSPSPKRSRSPSGSPRRSASPERMD
partner: B1 partner

Variants of: B1
Details: with nxf1_human NXF1, Q9UBU9

effect of a mutation on the interaction	Variant
disrupting interaction	R90E

Variants of: B1
Details: with nxf1_human NXF1, Q9UBU9
Remark: another data set of the same source

effect of a mutation on the interaction	Variant
disrupting interaction	R86E

Variants of: B1
Details: with nxf1_human NXF1, Q9UBU9
Remark: another data set of the same source

effect of a mutation on the interaction	Variant
disrupting interaction	R88E

Variants of: B2
Details: with nxf1_human NXF1, Q9UBU9

effect of a mutation on the interaction	Variant
disrupting interaction	R87E
disrupting interaction	R88E

Variants of: B2
Details: with nxf1_human NXF1, Q9UBU9
Remark: another data set of the same source

effect of a mutation on the interaction	Variant
disrupting interaction	R97E
disrupting interaction	R98E
